The values below are quoted from earlier work in paper PMC6197867.

The target of series [1] is LEN light chain variable domain VL (Homo sapiens) (UniProt P06312).
Series [2] deals with SMA light chain variable domain VL (Homo sapiens) (UniProt P06312).

For orientation: Kd means the equilibrium constant for the complex coming apart. Consider “LEN light chain variable domain VL (from UniProt P06312)”, for which the Kd in series [1] is 10 µM.

In the case of “SMA light chain variable domain VL (from UniProt P06312)”, the Kd in series [2] was 40 µM.
